Assay results as given in US20020193564A1, “Oligomeric chaperone proteins” (priority 1999, published 2002).
Read-outs that look alike come from different tables or passages of the source.

How the values were obtained:
E. coli SV6 groEL673 = test: In vivo complementation of ts groEL673 at 43° C.; assay type: cell-based; settings: for Relative colony forming ability, SV6 groEL673: plasmids pJC, relative to growth at 30° C.
Method: (§1) In vivo Complementation Experiments.
(§2) Complementation experiments were performed by transforming electro-competent SV2 or SV6 cells with the pJC series of expression vectors and plating an aliquot of the transformation reactions directly at 43° C. The percentage of viable cells relative to the growth at 30° C. was determined. A representative number of clones which grew at 43° C. were incubated in absence of any selective markers at permissive temperature. After prolonged growth the loss of the pJC plasmids and the ts phenotype were verified. Each experiment was performed in duplicate. Plasmids carrying no groE genes or encoding the GroE proteins were used as negative or positive controls, respectively.

bacteriophage λ = test: Growth of bacteriophage λ in transformed groEL strains; assay type: cell-based, bacteriophage λ (b2cI) in E. coli; parameters: key to Growth of bacteriophage λ, SV1 (groEL^+) / Growth of bacteriophage λ, SV2 groEL44: +++: normal plaque-forming ability relative to wild-type groEL^+ strain, in terms of both number and size; ++: 5-fold fewer plaques relative to wild-type groEL^+ strain, or both; 10-fold fewer plaques, or plaque size reduced relative to wild-type groEL^+ strain, or both; +/−: 10^2-fold fewer plaques and plaque size reduced relative to wild-type groEL^+ strain; no visible plaques (<10^−4); settings: for Effect of over-expression on λ growth / plaque counts: SV1 (groE^+); for Growth of bacteriophage λ, SV1 (groEL^+) / Growth of bacteriophage λ, SV2 groEL44 / Growth of bacteriophage λ, SV3 GroEL59 / Growth of bacteriophage λ, SV6 groEL673: 30° C.
Description: (§3) The E. Coli strains used in this study were: C41(DE3), a mutant of BL21(DE3) capable of expressing toxic genes (Miroux, B. & Walker, J. E. (1996) J. Mol. Biol. 260, 289-298); SV2 (B178groEL44), SV3 (B178groEL59) and SV6 (B178groEL673): isogenic strains carrying temperature-sensitive alleles of groEL; SV1(=B178) (Georgopoulos, C., Hendrix, R. W., Casjens, S. R. & Kaiser, A. D. (1973) J. Mol. Biol. 76, 45-60), A190 (ΔgroEL::kan^R) [pBAD-EL] (Ivic, A., Olden, D., Wallington, E. J. & Lund, P. A. (1997) Gene 194, 1-8), and TG1 (Gibson, T. J. (1984) Ph.D. thesis, University of Cambridge, U.K). Bacteriophage λb2cI (Zeilstra-Ryalls, J., Fayet, O., Baird, L. & Georgopoulos, C. (1993) J. Bacteriol. 175, 1134-1143) was used according to standard methods (Arber, W., Enquist, L., Hohn, B., Murray, N. E. & Murray, K. (1983) in Lambda II., ed. R. W. Hendrix, J. W. r., F. W. Stahl and R. A. Weisberg (Cold Spring Harbor Laboratory, Cold Spring Harbor, N.Y.), pp. 433-466); plaque formation was assayed at 30° C. T4D0, a derivative of bacteriophage T4 (Zeilstra-Ryalls, J., Fayet, O., Baird, L. & Georgopoulos, C. (1993) J. Bacteriol. 175, 1134-1143), was used according to standard methods (Karam, J. D. (1994) Molecular biology of bacteriophage T4. (American Society for Microbiology, Washington, D.C.)); plaque formation was assayed at 37° C.

E. coli SV2 groEL44 = test: In vivo complementation of ts groEL44 at 43° C.; assay type: cell-based; settings: for Relative colony forming ability, SV2 groEL44: plasmids pJC, relative to growth at 30° C.
Method: as §1, §2

[1] = test system: mutant Huntingdon exon 1-expressing PC12 and SH-SY5Y cells; test: Inclusion formation and cell death, mutant Huntingdon exon 1; assay type: cell-based; settings: overexpression
Description: These phenomena have been studied by transiently transfecting part of Huntingdon exon 1 in COS-7, PC12, and SH-SY5Y cells. Inclusion formation was not seen with constructs expressing 23 glutamines but was repeat length and time dependent for mutant constructs with 43-74 repeats. HSP70, HSP40, the 20S proteasome and ubiquitin colocalized with inclusions. […] Thus, inclusion formation may be enhanced in polyglutamine diseases, if the pathological process results in proteasome inhibition or a heat-shock response. […] To our knowledge, this is the first report of an HSP increasing aggregation of an abnormally folded protein in mammalian cells and expands the current understanding of the roles of HDJ-2yHSDJ in protein folding (See Wyttenbach, A. et al. (2000) Proc. Natl. Acad. Sci. USA 97, 2899-2903).
We have tested MC72 in the same system.

bacteriophage T4 = test: Growth of bacteriophage T4 in transformed groEL strains; assay type: cell-based, bacteriophage T4 (T4D0) in E. coli; parameters: key to Growth of bacteriophage T4, SV1 (groEL^+) / Growth of bacteriophage T4, SV2 groEL44 / Growth of bacteriophage T4, SV3 GroEL59 / Growth of bacteriophage T4, SV6 groEL673: +++: normal plaque-forming ability relative to wild-type groEL^+ strain, in terms of both number and size; ++: 5-fold fewer plaques relative to wild-type groEL^+ strain, or both; 10-fold fewer plaques, or plaque size reduced relative to wild-type groEL^+ strain, or both; +/−: 10^2-fold fewer plaques and plaque size reduced relative to wild-type groEL^+ strain; no visible plaques (<10^−4); settings: for Growth of bacteriophage T4, SV1 (groEL^+) / Growth of bacteriophage T4, SV2 groEL44 / Growth of bacteriophage T4, SV3 GroEL59 / Growth of bacteriophage T4, SV6 groEL673: 37° C.
Description: as §3

[2] = test system: AI90 (ΔgroEL::kan^R) [pBADEL] E. coli strain; test: Plating ability of AI90 on GroEL depletion at 37° C.; assay type: cell-based; parameters: key to Plating ability, 0.00 % L(+)arabinose: +++: growth identical to that in presence of 0.2% L(+)arabinose (100%), in terms of both number and size; ++: about 50% of the colonies relative to that in presence of 0.2% L(+)arabinose; +: about 30% of the colonies; +/−: ≦5% of the colonies and size reduced relative to that in presence of 0.2% L(+)arabinose; −: no visible colonies
Method: AI90 (ΔgroEL::kan^R) [pBAD-EL] cells were transformed with the pJC vector series. Transformants were selected at 37° C. on LB supplemented with 50 μg.ml^−1 of kanamycin, 120 μg.mL^−1 of ampicillin, 25 μg.mL^−1 of chloramphenicol and 0.2% L(+)arabinose. Depletion of GroEL protein was analysed at 37° C. by plating the same quantity of AI90 [PBAD-EL+pJC vectors] cells on LB plates containing 1% D(+)glucose or various amount of arabinose.
Each experiment was performed in triplicate. Plasmids carrying no groE genes or encoding the GroE proteins were used as negative or positive controls, respectively.

[3] = test system: mutant Huntingdon exon 1-expressing PC12 and SH-SY5Y cells; settings: overexpression; cited from earlier work

Molecule: GroES-EL: plasmid encoding the GroE proteins GroES and GroEL, positive control
- Relative colony forming ability, SV6 groEL673 (E. coli SV6 groEL673): 1
- Effect of over-expression on λ growth / plaque counts (bacteriophage λ): four-fold drop in plaques
- Relative colony forming ability, SV2 groEL44 (E. coli SV2 groEL44): 1

Molecule: yeast Hsp104: yeast chaperone Hsp104
- cell death [1]: reduced
- inclusion formation [1]: reduced inclusion formation

B1: GroES(1-97): co-chaperone of GroEL, seven membered ring of 10 kD subunits (protein, UniProt P0A6F9 1-97, looked up)
Co-chaperonin GroES: MNIRPLHDRVIVKRKEVETKSAGGIVLTGSAAAKSTRGEVLAVGNGRILENGEVKPLDVKVGDIVIFNDGYGVKSEKIDNEEVLIMSESDILAIVEA
- Relative colony forming ability, SV6 groEL673 (E. coli SV6 groEL673): <10^−4
- Growth of bacteriophage T4, SV1 (groEL^+) (bacteriophage T4): +++
- Growth of bacteriophage T4, SV2 groEL44 (bacteriophage T4): +++
- Growth of bacteriophage T4, SV3 GroEL59 (bacteriophage T4): +++
- Growth of bacteriophage T4, SV6 groEL673 (bacteriophage T4): − (no visible plaques (<10^−4))
- Effect of over-expression on bacteriophage T4 growth in groEL strains (bacteriophage T4; groEL strains): allele-specific complementation
- Complementation of groEL mutant strains for bacteriophage λ growth (bacteriophage λ): allele-specific complementation
- Growth of bacteriophage λ, SV1 (groEL^+) (bacteriophage λ): +++
- Growth of bacteriophage λ, SV2 groEL44 (bacteriophage λ): +++
- Growth of bacteriophage λ, SV3 GroEL59 (bacteriophage λ): − (no visible plaques (<10^−4))
- Growth of bacteriophage λ, SV6 groEL673 (bacteriophage λ): − (no visible plaques (<10^−4))
- Effect of over-expression on λ growth / plaque counts (bacteriophage λ): no effect
- Relative colony forming ability, SV2 groEL44 (E. coli SV2 groEL44): 5 × 10^−3

B2: sht-GroEL(191-376): histidine-tagged (short histidine tail; sht) minichaperone GroEL(191-376) (protein, UniProt P0A6F5 191-376, looked up, fragment)
chain: EGMQFDRGYLSPYFINKPETGAVELESPFILLADKKISNIREMLPVLEAVAKAGKPLLIIAEDVEGEALATLVVNTMRGIVKVAAVKAPGFGDRRKAMLQDIATLTGGTVISEEIGMELEKATLEDLGQAKRVVINKDTTTIIDGVGEEAAIQGRVAQIRQQIEEATSDYDREKLQERVAKLAGGV
modifications: short His tag
- Relative colony forming ability, SV6 groEL673 (E. coli SV6 groEL673): <10^−4
- Plating ability, 0.00 % L(+)arabinose ([2]; 0.00% arabinose): −
- Plating ability, 0.01 % L(+)arabinose ([2]; 0.01% arabinose): +/− (≦5% of the colonies and size reduced relative to that in presence of 0.2% L(+)arabinose)
- Plating ability, 0.10 % L(+)arabinose ([2]; 0.10% arabinose): + (about 30% of the colonies)
- Plating ability, 0.15 % L(+)arabinose ([2]; 0.15% arabinose): ++ (about 50% of the colonies relative to that in presence of 0.2% L(+)arabinose)
- Growth of bacteriophage T4, SV1 (groEL^+) (bacteriophage T4): +++
- Growth of bacteriophage T4, SV2 groEL44 (bacteriophage T4): − (no visible plaques (<10^−4))
- Growth of bacteriophage T4, SV3 GroEL59 (bacteriophage T4): +++
- Growth of bacteriophage T4, SV6 groEL673 (bacteriophage T4): − (no visible plaques (<10^−4))
- Growth of bacteriophage λ, SV1 (groEL^+) (bacteriophage λ): +++
- Growth of bacteriophage λ, SV2 groEL44 (bacteriophage λ): − (no visible plaques (<10^−4))
- Growth of bacteriophage λ, SV3 GroEL59 (bacteriophage λ): − (no visible plaques (<10^−4))
- Growth of bacteriophage λ, SV6 groEL673 (bacteriophage λ): − (no visible plaques (<10^−4))
- Relative colony forming ability, SV2 groEL44 (E. coli SV2 groEL44): <10^−4

B3: sht-GroEL(191-345): short histidine tail minichaperone, GroEL residues 191-345 (protein, UniProt P0A6F5 191-345, looked up, fragment)
chain: EGMQFDRGYLSPYFINKPETGAVELESPFILLADKKISNIREMLPVLEAVAKAGKPLLIIAEDVEGEALATLVVNTMRGIVKVAAVKAPGFGDRRKAMLQDIATLTGGTVISEEIGMELEKATLEDLGQAKRVVINKDTTTIIDGVGEEAAIQGR
modifications: short His tag
- Complementation of the groEL673 defect in SV6 (E. coli SV6 groEL673): complemented
- Relative colony forming ability, SV6 groEL673 (E. coli SV6 groEL673): 0.07-0.09
- Relative colony forming ability, SV2 groEL44 (E. coli SV2 groEL44): 0.01-0.02

B4: GroEL(191-345): GroEL(191-345) minichaperone monomer (protein, UniProt P0A6F5 191-345, looked up, fragment)
chain: EGMQFDRGYLSPYFINKPETGAVELESPFILLADKKISNIREMLPVLEAVAKAGKPLLIIAEDVEGEALATLVVNTMRGIVKVAAVKAPGFGDRRKAMLQDIATLTGGTVISEEIGMELEKATLEDLGQAKRVVINKDTTTIIDGVGEEAAIQGR
modifications: apical domain
notes: GroEL(191-345) minichaperone monomer
- cell death [3]: reduced cell death
- proportion of cells with inclusions / inclusion formation [3]: reduced slightly but significantly

B5: sht-GroEL(193-335): short histidine tail minichaperone, GroEL residues 193-335 (protein, UniProt P0A6F5 193-335, looked up, fragment)
chain: MQFDRGYLSPYFINKPETGAVELESPFILLADKKISNIREMLPVLEAVAKAGKPLLIIAEDVEGEALATLVVNTMRGIVKVAAVKAPGFGDRRKAMLQDIATLTGGTVISEEIGMELEKATLEDLGQAKRVVINKDTTTIIDG
modifications: short His tag
- Complementation of the groEL673 defect in SV6 (E. coli SV6 groEL673): less well
- Relative colony forming ability, SV6 groEL673 (E. coli SV6 groEL673): 0.03-0.05
- Complementation of the groEL44 defect in SV2 (E. coli SV2 groEL44): complements the defect in SV2
- Relative colony forming ability, SV2 groEL44 (E. coli SV2 groEL44): 0.05-0.09
